Reference: PMC9482095
Like-named read-outs stand apart in the source and are kept apart here.

Columns and labels:
FOXO1 FKH wt [1] = target: T1, FOXO1 FKH wt (UniProt Q12778 151-265); experiment: EMSA
FOXO1 FKH wt [2] = target: T1, FOXO1 FKH wt; experiment: EMSA; remark: listed apart in the source

B1: dsIRE (dsDNA)
DNA 1: TAAGCTAGTGGTTTGTTTTGCTTGCTAGCAAT
DNA 2: ATTGCTAGCAAGCAAAACAAACCACTAGCTTA
FOXO1 FKH wt [1]
  Kd: 200 ± 70 nM

B2: dsDBE2 (dsDNA)
DNA 1: TAAGCTAGTCTTGTTTACATTTTGCTAGCAAT
DNA 2: ATTGCTAGCAAAATGTAAACAAGACTAGCTTA
FOXO1 FKH wt [2]
  Kd: 90 nM
